Biological target: T1, recombinant high mobility group box 1 (HMGB1) (human, UniProt P09429 1-215)
T1 sequence (looked up): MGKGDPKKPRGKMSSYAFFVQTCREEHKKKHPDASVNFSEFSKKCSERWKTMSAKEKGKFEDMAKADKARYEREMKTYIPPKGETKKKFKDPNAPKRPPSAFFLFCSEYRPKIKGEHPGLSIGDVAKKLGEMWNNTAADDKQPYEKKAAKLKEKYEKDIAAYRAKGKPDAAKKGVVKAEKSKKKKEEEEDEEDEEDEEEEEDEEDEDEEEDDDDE
Assay: radioligand binding

IC50: 500 to 550 nM
B1: purified syndecan-1 (natural protein)
chain: QIVAVNVPPEDQDGSGDDSDNFSGSGTGALPDTLSRQTPSTWKDVWLLTATPTAPEPTSSNTETAFTSVLPAGEKPEEGEPVLHVEAEPGFTARDKEKEVTTRPRETVQLPITQRASTVRVTTAQAAVTSHPHGGMQPGLHETSAPTAPGQPDHQPPRVEGGGTSVIKEVVEDGTANQLPAGEGSGEQDFTFETSGENTAVAAVEPGLRNQPPVDEGATGASQSLLDRKEVLG
modifications: heparan sulfate (HS) polysaccharide side chains on the core protein

— article PMC7315409 (Science translational medicine, 2020)
